Source: article doi:10.1101/2025.04.01.646186 (bioRxiv, 2025)

Molecular target: PSMA2 (subunit of the human 20S proteasome) (human, UniProt P25787 1-234)
Experiment: cryo-EM structure

Sequence of PSMA2 (subunit of the human 20S proteasome) (P25787 whole entry): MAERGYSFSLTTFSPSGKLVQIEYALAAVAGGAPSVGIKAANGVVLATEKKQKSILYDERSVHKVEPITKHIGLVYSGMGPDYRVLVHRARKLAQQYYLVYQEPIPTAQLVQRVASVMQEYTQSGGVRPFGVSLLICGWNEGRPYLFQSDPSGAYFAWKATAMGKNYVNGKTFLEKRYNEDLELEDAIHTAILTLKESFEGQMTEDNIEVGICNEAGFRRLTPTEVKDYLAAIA

- binding result: binds
Binder: H-DNDDDLYG-OH [VCP C-terminal HbYX peptide H-DNDDDLYG-OH]
